Assays:
[1] = target: T1, HLA B*3501 presenting HCMV pp65 peptide … on cells (Homo sapiens HLA-B*35:01 and B2M on …, strain); assay: flow cytometry on cells; conditions: one partner purified
T1 construct: copies: + +

[2] = target: T2, biotinylated HLA B*0801/HCMV IE1 peptide … complex (Homo sapiens HLA-B*08:01 and B2M; HCMV …, strain, biotin (in vivo, BirA, AviTag)); assay: ELISA; conditions: both partners purified
T2 construct: copies: + +

[3] = target: T3, HLA A*2402 presenting HCMV pp65 peptide … on cells (Homo sapiens HLA-A*24:02/B2M; HCMV pp65 …, strain); assay: flow cytometry on cells; conditions: one partner purified
T3 construct: copies: + +

[4] = target: T4, biotinylated HLA A*2402/HCMV pp65 peptide … complex (Homo sapiens HLA-A*24:02/B2M; HCMV pp65 …, strain, biotin (in vivo, BirA, AviTag)); assay: ELISA; conditions: both partners purified
T4 construct: copies: + +

B1: biotinylated Fab C5 (Fab, V domains shown)
VH: EVQLVQSGAEVKRPGASVKVSCKASGYTFTNYDINWVRQATGQGLEWMGWMNPNSGNTGYAQKFQGRVTITADKSTSTAYMELSSLRSEDTAVYYCARQGRLRFLEWYMFDPWGQGTLVTVSS
VL: DVVMTQSPLSLPVTPGEPASISCRSSQSLLHSNGYNYLDWYLQKPGQSPQLLIYLGSIRASGVPDRVTGSGSGTDFTLQISRVEAEDVGVYYCMQGLQTPYTFGQGTKLEIK
notes: source: E. coli TG1, biotinylated in vivo, purified (IMAC, Talon beads)
B1: binds [1].

B2: Fab 2A2 (Fab, V domains shown)
VH: QVQLVQSGAEVKKPGASVKVSCKASGYTFTDYYVHWVRQAPGQGLEWMGRINPNSGGTNYAQKFQGRVTMTRDASISTAYMELSRLRSDDTAVYYCAREMGYGGKSEDYWGQGTLVTVSS
VL: SYVLTQPPSLSVAPGKTARIICGGNNIGSKSVHWYQQKPGQPPVLVVHDDGDRPSGIPERFSGSNSGITATLTITGVEAGDEADYYCQVWDYSSDHVIFGGGTKLTVL
notes: source: E. coli TG1, purified (IMAC, Talon beads)
B2: binds [2].

B3: biotinylated Fab C12.2 (Fab, V domains shown)
VH: QITLKESGPTLVKPTQTLTLTCTFSGFSLSTSGVAVGWIRQPPGKALEWLALIYWDDDKHYSPSLKNRLTITKDTSKNQVVLTLTNMDPVDTATYYCARMTYSGSWYSFYYFDYWGQGTLVTVSS
VL: EIVLTQSPATLSFSPGERATLSCRASQSVGSYLAWYQQRPGQAPRPLIYDATNRATGIPTRFSGSGSGTDFTLTISSLEPEDFATYYCQHRRTFGRGTKLEIK
notes: as for B1
B3: binds [3].

B4: Fab C12/2 (Fab, V domains shown)
VH: QITLKESGPTLVKPTQTLTLTCTFSGFSLSTSGVAVGWIRQPPGKALEWLALIYWDDDKHYSPSLKNRLTITKDTSKNQVVLTLTNMDPVDTATYYCARMTYSGSWYSFYYFDYWGQGTLVTVSS
VL: EIVLTQSPATLSFSPGERATLSCRASQSVGSYLAWYQQRPGQAPRPLIYDATNRATGIPTRFSGSGSGTDFTLTISSLEPEDFATYYCQHRRTFGRGTKLEIK
B4: binds [4].
